Patent publication US20160274110A1 (Novartis, published 2016)

Assays:
[1] = target: T1, human GPR15 (human, UniProt P49685 1-360); assay: cell-based or functional assay
T1 sequence (looked up): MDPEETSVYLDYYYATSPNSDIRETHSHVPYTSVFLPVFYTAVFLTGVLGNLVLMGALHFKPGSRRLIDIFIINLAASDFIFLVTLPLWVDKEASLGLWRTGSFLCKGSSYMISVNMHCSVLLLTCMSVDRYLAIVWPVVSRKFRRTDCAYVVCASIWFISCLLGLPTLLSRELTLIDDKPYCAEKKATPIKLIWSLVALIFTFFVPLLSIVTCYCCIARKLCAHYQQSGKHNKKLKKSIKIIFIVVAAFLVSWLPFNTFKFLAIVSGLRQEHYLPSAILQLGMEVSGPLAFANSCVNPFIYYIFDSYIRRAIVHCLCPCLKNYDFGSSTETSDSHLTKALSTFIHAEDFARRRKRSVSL

[2] = target: T2, mouse GPR15 (mouse, UniProt Q0VDU3 1-360); assay: cell-based or functional assay
T2 sequence (looked up): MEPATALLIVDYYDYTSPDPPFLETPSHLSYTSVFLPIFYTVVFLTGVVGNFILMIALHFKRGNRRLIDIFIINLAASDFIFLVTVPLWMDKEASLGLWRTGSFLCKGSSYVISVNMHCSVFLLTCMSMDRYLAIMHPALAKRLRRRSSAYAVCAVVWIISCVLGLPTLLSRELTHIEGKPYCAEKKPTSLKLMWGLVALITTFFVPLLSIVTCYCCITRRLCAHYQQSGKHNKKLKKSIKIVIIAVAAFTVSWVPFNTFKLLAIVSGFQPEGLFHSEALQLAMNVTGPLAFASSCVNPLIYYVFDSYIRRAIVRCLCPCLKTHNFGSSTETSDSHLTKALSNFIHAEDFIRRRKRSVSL

B1: c10orf99 1-57, synthetic peptide KRRPAKAWSGRRTRLCCHRVPSPNSTNLKGHHVRLCKPCKLEPEPRLWVVPGALPQV (SEQ ID NO: 6) (ligand)
peptide: KRRPAKAWSGRRTRLCCHRVPSPNSTNLKGHHVRLCKPCKLEPEPRLWVVPGALPQV
- EC50 in in vitro cellular assays (aequorin assay; cAMP in CHO-GPR15 and HEK-GPR15 cell lines) [1]: < 0.01 µM

Binder: QKPQLWVVPGALPQV
- EC50 of GPR15 activation, Aequorin assay (luminescence, calcium) [2]: ~2 µM
- EC50 of GPR15 activation, Aequorin assay (luminescence, calcium) [1]: ~2 µM
